Measurements published in PMC8754118, “The PqsE-RhlR Interaction Regulates RhlR DNA Binding to Control Virulence Factor Production in Pseudomonas aeruginosa” (Microbiology Spectrum, 2022).

Legend:
[1] = system: RhlR:mBTL;PqsE (Pseudomonas aeruginosa;Pseudomonas aeruginosa); test: EMSA; settings: scale: fold higher affinity than RhlR:mBTL alone
[2] = molecular target: 6x-His-PqsE (wild type) (P. aeruginosa, UniProt P20581 1-301); test: cell-based or functional assay
[3] = molecular target: 6x-His-PqsE(E182W) (P. aeruginosa, UniProt P20581 1-301, E182W); test: cell-based or functional assay
[4] = molecular target: 6x-His-PqsE(E182W/S285W) (P. aeruginosa, UniProt P20581 1-301, E182W | S285W); test: cell-based or functional assay

rhlA promoter EMSA probe
binding signal [1]: 5

B1: RhlR bound to meta-bromo-thiolactone (RhlR:mBTL) (receptor)
chain: MRNDGGFLLWWDGLRSEMQPIHDSQGVFAVLEKEVRRLGFDYYAYGVRHTIPFTRPKTEVHGTYPKAWLERYQMQNYGAVDPAILNGLRSSEMVVWSDSLFDQSRMLWNEARDWGLCVGATLPIRAPNNLLSVLSVARDQQNISSFEREEIRLRLRCMIELLTQKLTDLEHPMLMSNPVCLSHREREILQWTADGKSSGEIAIILSISESTVNFHHKNIQKKFDAPNKTLAAAYAAALGLI
bioluminescence from prhlA-luxCDABE in E. coli carrying rhlR and pqsE, 500 nM C4HSL, against the strain lacking PqsE [2]: 42 fold | bioluminescence from prhlA-luxCDABE in E. coli carrying rhlR and pqsE(E182W), 500 nM C4HSL, against the no-PqsE control strain [3]: ~11 fold | bioluminescence from prhlA-luxCDABE in E. coli carrying rhlR and pqsE(E182W/S285W), 500 nM C4HSL, against the no-PqsE control strain [4]: ~11 fold
